Reference: patent US20260263609A1 (NEW YORK UNIVERSITY, published 2026)

Experiments:
[1] = target: T1, NRAS (human, UniProt P01111 1-174, limits assumed); experiment: BLI; biotinylated monobody on streptavidin tip, NRAS at 50, 25, 12.5 and 6.25 nM; global 1:1 fit; upper right panel, untitled on this sheet, NRAS(WT)·GTPγS by the layout of FIG. 2A
T1 construct: also called Neuroblastoma-RAS; NRAS (WT)
Experimental: (§1) In these experiments a biotinylated monobody was immobilized on streptavidin coated BLI tip, and then binding of RAS proteins was measured.
(§2) These monobodies were produced as purified proteins and their binding characteristics against purified RAS proteins were analyzed using biolayer interferometry (BLI) (FIGS. 2A-2C).

[2] = target: T2, NRAS (K135R) (human, UniProt P01111 1-174, limits assumed); experiment: BLI; sensorgrams at 100 nM and 25 nM with fit; nucleotide state not marked
T2 construct: also called NRAS mutant with the H/KRAS-mimicking mutation K135R

[3] = target: T1, NRAS; experiment: BLI; biotinylated monobody on streptavidin tip, NRAS at 50, 25, 12.5 and 6.25 nM; global 1:1 fit; upper left panel, untitled on this sheet, NRAS(WT)·GDP by the layout of FIG. 2A
Experimental: as §1, §2

[4] = target: T1, NRAS; experiment: as above; remark: listed apart in the source
Experimental: as §1, §2

[5] = target: T1, NRAS; experiment: BLI; biotinylated monobody on streptavidin tip, NRAS at 50, 25, 12.5 and 6.25 nM; global 1:1 fit; upper right panel, untitled on this sheet, NRAS(WT)·GTPγS by the layout of FIG. 2A; remark: listed apart in the source
Experimental: as §1, §2

| Binder | Kd [1] [nM] | Kd [2] [nM] | Kd [3] [nM] | Kd [4] [nM] | Kd [5] [nM] |
| --- | --- | --- | --- | --- | --- |
| Mb(NRAS_20) (designed binder) VSSVPTKLEVVAATPTSLLISWDAPAVTVDFYVITYGETGAYYPYAQEFKVPGSKSTATISGLSPGVDYTITVYAYQVIGAIWKYYSPISINYRT | 1.1 | 9.5 | 3.3 | – | – |
| Mb(NRAS_24) (designed binder) VSSVPTKLEVVAATPTSLLISWDAPAVTVDFYVITYGETGGYAWAYQEFKVPGSKSTATISGLSPGVDYTITVYAYQVIGAIWKYYSPISINYRT | – | 5.6 | – | 2.6 | 0.52 |
